# Assay results from the supplement of paper PMC12042874.
# ± gives the uncertainty stated by the source.
# Assay: amyloid nucleation score (Sup35N fusion, yeast selection) (log enrichment); library NNK2; higher = more nucleation; inactive = no reads after selection
# Outline: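 Libraries of peptides of 20 random codons fused to Sup35N were expressed in psi-negative yeast and induced 24 hours with 100 μM copper sulfate. Selection was 7 days at 30°C on medium lacking adenine and uracil, and plasmid inserts were Illumina-sequenced before and after selection. Nucleation score is the DiMSum log enrichment of output over input reads, centred on the mode score of non-aggregating sequences, and sequences with under 100 input reads were left out.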
row,Substance,amyloid nucleation score
1,LIFCGECTILNTGGGNRAWV,8.361 ± 0.03
2,KRSLIINGAATT,1.61 ± 0.26
3,ANSNIHLVPMTLSTDEVPLP,0.413 ± 0.43
4,YLNYNIMS,inactive
5,RYRALPTMPLEMSVQGDLRV,-0.319 ± 0.25
6,VTIRDLFYGHVRQPDSQVVI,0.883 ± 0.52
7,VETMY,1.24 ± 0.43
8,TRYTRGSALCTLDGKIYMMK,1.29 ± 0.4
9,AKPTRGSCSGT,2.79 ± 0.12
10,NGTLRQYDRSDYINKIGDSN,-1.02 ± 0.38
11,LYETSMNDPMRVHHLRCEFI,-0.254 ± 0.56
12,EDIWEMRSLHLWLSCSGWTD,2.27 ± 0.15
13,LIIDQVIMNGINVPYTYLIY,4.15 ± 0.056
14,RALLW,-0.094 ± 1
15,AFTLQIHGFSVIVTASLQVS,-0.642 ± 1.1
16,MSWAVRDSIHRNYLKFVNRR,-0.02 ± 1.1
17,RLSAHPVAAVLWG,1.49 ± 0.36
18,ILYSDFRMYSGRFLSEMVRI,0.247 ± 0.39
19,CEFALYAFWCCIYLRFNKYS,-0.606 ± 0.44
20,GPRLEGWSPPDRAVLSGCSD,0.656 ± 0.44
21,IYMDLLQNQSIR,-1.27 ± 1.1
22,YQSFFVINLYNGLHTRGMRV,7.701 ± 0.055
23,SGWSNFVLCILHTTTGMKRH,3.95 ± 0.071
24,SAVIFAESTCV,-0.512 ± 0.79
25,KGPDITEHTITRGPEGNSRY,-0.17 ± 0.65

row,Substance,amyloid nucleation score
1,ACRELVWLG,0.354 ± 0.65
2,CLSRHAHRRRGMVYAGDYRA,-0.256 ± 0.49
3,GCYRLNSLYATIQLRLLSWW,-0.46 ± 1.1
4,HFIKKGDYNKTTKYSPCNEL,-0.941 ± 0.45
5,GSVRSMVGFNACRTSLYESC,0.012 ± 1
6,ESGFGMSSNWKPERNFW,inactive
7,GCVCDVGPVTVRGVNGVLVS,1.45 ± 0.26
8,AGSARRLGLMPRGSGYALGW,1.44 ± 0.17
9,TLLSFRTVDNKIYKVLWVKT,0.418 ± 0.48
10,PFVTK,0.259 ± 0.29
11,NARVL,-0.853 ± 0.64
12,SLSLINRSVVDAWRGRDGVR,5.107 ± 0.034
13,LTSNPVPSNLT,3.35 ± 0.076
14,RMCLSVVNWSSRSHRSFHQP,3.81 ± 0.051
15,DLYQALSISV,-0.308 ± 0.39
16,RFFVYWFVFLCRLNGCVLWT,-0.689 ± 0.4
17,LHSCLMCRTSMWSVSIWLKL,-0.049 ± 0.74
18,MLECVSALGKLGWFIQPVCL,-0.32 ± 0.55
19,SGVIHSVFVWKCLITGGM,-0.711 ± 0.38
20,DLHPGNSNAD,-0.146 ± 0.54
21,RVDTYYQNL,5.21 ± 0.059
22,IYTTYKRTFRS,-0.553 ± 1.1
23,GNCCDDCP,1.53 ± 0.24
24,VWLYCSEQDRCVMLASRELL,0.465 ± 0.34
25,FMMHRVSTRFASKNAS,-0.072 ± 1.1

row,Substance,amyloid nucleation score
1,FCLALWWHYKFVLWFRNN,-0.836 ± 0.37
2,FYYYLFFLAIISCTGYLALS,0.286 ± 0.42
3,CSMFSKLMVNSGLSSVLTVM,0.047 ± 0.28
4,TEASLMWRYWDGDPWQWSFD,inactive
5,AMYEH,0.518 ± 0.46
6,VNWEHVRIVELFYKGMSQMA,-0.549 ± 1
7,PSYMFITVLYLQTEFGFDDT,3.82 ± 0.074
8,HSGLSGTILGWLIFKVEGEE,0.007 ± 0.42
9,NDSQTTLGLFDCRVREADHR,-0.003 ± 1.1
10,MMYDRIIQFTLYTLI,3.09 ± 0.057
11,YLDGYSSFTSFEKAMARRCG,0.305 ± 0.74
12,WYSNAVG,1.57 ± 0.37
13,YLLRNWLPGKVGCHQFLILW,0.757 ± 0.39
14,VLVVSRA,-0.514 ± 0.45
15,WASIV,0.049 ± 0.8
16,GWSYTEVYFMIASCYII,1.16 ± 0.29
17,HYWNWYVEL,4.582 ± 0.037
18,FVFLFMRLKDGFYATIYISH,inactive
19,CMSNTMCAFVDGYNMHYLVD,inactive
20,SLSPIYDDLASVVAGTYEIK,-1.27 ± 0.75
21,KFSVSLICYVTASRYSNYRE,0.362 ± 0.31
22,SRWPLGNMCGKPVEMPEKWS,0.836 ± 0.55
23,GCVGAVRRLEGSIVYEDRTL,0.944 ± 0.25
24,SSGLGTSVGSGILNSRDKDG,0.434 ± 0.51
25,KPIIGGVSTERSLVIAGVHL,0.011 ± 0.79

row,Substance,amyloid nucleation score
1,CMEETMVSSLKLLTRPMTSR,0.052 ± 0.29
2,FVFVAARAFCRSVSNVSD,-0.399 ± 0.55
3,SMRSIREEAVFVLIVVLRGR,0.261 ± 0.43
4,NIFNRA,inactive
5,FAFVYSNHFGQMCYRNVCLS,inactive
6,FVLLGGMTWHT,5.512 ± 0.027
7,ECVDCESIEMEAVSC,1.26 ± 0.16
8,YIDLLGRVCHYSLGWLCYCM,-1.05 ± 1.1
9,ICSAPGYL,inactive
10,TIGFLFLVNWPSWNFLEEVF,inactive
11,WFDIKL,-0.367 ± 0.48
12,RFMVSRYFISGPIIVSC,0.284 ± 1.1
13,DVREFSSDYSQVGVEVLVFL,0.373 ± 0.42
14,VAKYLHYMSWVWRFMAWSYV,-1.15 ± 1
15,CLEMFLKLCSLECARMKLPR,5.673 ± 0.04
16,DYQGGCSILTSEDEPYEVAC,1.56 ± 0.44
17,LGPMTLATTLFNCKDRHVSP,0.438 ± 0.29
18,HIVIGSFD,inactive
19,ASLHWKMFLMAFLTASIVHA,-0.337 ± 0.55
20,GTNHWTVRLIYLVLHLDRDG,0.583 ± 0.41
21,RSNNTIFGKLFSGAILLCWV,-1.2 ± 1
22,MFGGLGTDSLA,-0.46 ± 1
23,LFFIIDNSQLSSSVDGLIVE,-0.583 ± 1
24,EFWVLNYVITNLHWQTYSIM,-1.29 ± 1
25,VLAARVTTYHLCVSEDVVTL,2.9 ± 0.15

row,Substance,amyloid nucleation score
1,TMRYMVQMLRFEQSGLGQWV,4.19 ± 0.076
2,WEDKVAGSMGAWDDLG,0.791 ± 0.67
3,DACWFMIGHIGFC,inactive
4,CYVVAREKSLIETGNFGKYG,-0.653 ± 0.79
5,TSTTYRLYKLGQFLARPANQ,-0.637 ± 1.1
6,LHRTLSRRTEVR,3.54 ± 0.086
7,MSRKWGGSKRCNGCPPKLVQ,1.08 ± 0.22
8,CDPVSNFCIMLMCFIREYGR,1.99 ± 0.087
9,THIITWSVNFTKGWQCFESQ,1.36 ± 0.38
10,GNEVRGNTMVENPTMSLVMG,0.712 ± 0.39
11,VMTSIVFNRVSWYFLIMFVW,-0.987 ± 0.55
12,GSVRYWK,-0.685 ± 0.36
13,EMYKQVRFVVIGIIC,1.21 ± 0.24
14,EVSTWQLPMNTDTVEGGSVV,1.16 ± 0.25
15,IRLVMWCYHQNDCVVFSSLH,1.94 ± 0.13
16,RMWCQVKS,-0.236 ± 0.53
17,IMHSLLRSGN,inactive
18,FFRCVLITPD,0.179 ± 0.53
19,VCGGVRYYLNTFYIKR,7.566 ± 0.054
20,RGDSATLVGCNVVMGRRFSL,4.32 ± 0.099
21,NKMEDHGMWDLIAYRGVIPL,-0.269 ± 0.22
22,DLSRLCVGHAVI,0.446 ± 0.18
23,AWANRMWWAR,4.23 ± 0.074
24,VVRYLYRWTTVVGLHGGSHN,-0.786 ± 0.43
25,LFLGYMSLCVVYVLAFGRFE,3.79 ± 0.043

row,Substance,amyloid nucleation score
1,VWIFSSSIKTTLYKHLLSNT,-0.539 ± 0.74
2,LNKNRHGVGIFGIIKYKDMT,inactive
3,DLYNCMHWQHVEYIMLLHGL,-0.846 ± 0.35
4,KVMGYGYA,-1.02 ± 0.55
5,TMSVDCWLCNLRMEMFLELY,-1.54 ± 0.75
6,TDWGTLARMGLASLC,inactive
7,QKTRLSPVYHVGNSGLSPSV,0.29 ± 0.77
8,MFRSVRFVCWSRLIDNRYMQ,-0.18 ± 0.34
9,NRVFVVND,1.4 ± 0.2
10,LFCRSSC,inactive
11,GNMKCQVTLILMSTSDIREL,7.039 ± 0.041
12,VISNHPETTDTNRVLLYVLG,0.411 ± 0.53
13,LADTVIMGLGSTLFVYVYLI,3.88 ± 0.077
14,IVICSVFSIMTRLFRSVNGR,8.429 ± 0.062
15,ESYLFAWDNGMFYIANDLEF,0.494 ± 0.8
16,RAWKSPYCLNTRMSTEGHEY,0.348 ± 0.48
17,YLRLHYAFSGVNNKGIESGC,inactive
18,VALQWMG,2.2 ± 0.19
19,KESLAFTSVGVPYVWGLYGE,0.035 ± 0.32
20,WWRRRCR,0.224 ± 0.3
21,ETPIIRDQYKLGYNLRTSVL,inactive
22,CTSVGFTYHRDFWYMGFWSR,0.919 ± 0.15
23,YYFWSTFGSYNYLIFCYSIL,-0.656 ± 1.1
24,SARRGCYWEAYCATCLKGWM,-1.03 ± 0.76
25,SYNTRFIASSCSGSY,-1.06 ± 0.76

row,Substance,amyloid nucleation score
1,FWSDSVVFRPDTVRLERSLG,0.025 ± 1.1
2,PWHDEVVVSNQVYTYMGPSS,0.074 ± 0.3
3,TTGRTYIRLIYIMCVSMNVS,inactive
4,VWGLLTIPCVSQIRCRCGFS,0.749 ± 0.53
5,KILGWT,0.836 ± 0.21
6,SQYMVGPGKRRKKSYGVG,inactive
7,CVFVPIKLGGDGLTVYLKCI,-0.996 ± 0.45
8,TGAIRGGSVQRVHSLINPRM,-0.414 ± 0.55
9,GTNKAYFNASFMD,-0.875 ± 0.44
10,DFVHVEIDPYQVGGGFQ,8.764 ± 0.046
11,VRCRDENHVVELSGGEVPDS,0.066 ± 1
12,CWQVYLIFMGRMVCLTVML,1.15 ± 0.66
13,SIVFFNRC,7.562 ± 0.05
14,MTRTFYCFQGRHLDSWDQGE,0.371 ± 0.8
15,MYVMTHNL,0.776 ± 0.44
16,VYFSQDQFSYYFTRVESVEV,-0.191 ± 0.45
17,QKRRDFVVHCIRELWFYEHD,inactive
18,LGYKVSK,2.63 ± 0.19
19,TDLSLWNTILRVAG,0.05 ± 0.31
20,RGCGFRIDVGKRWRNRIKSV,inactive
21,KHIKWKDCSG,-0.091 ± 0.65
